Laboratory results published in publication PMC6404747.

Target: Smurf (UniProt Q9V853)
Assay: co-IP Myc-Smo / Fg-Smurf
Conditions: reference: wild-type Myc-Smo plus Hh; sites S667,S687,S740

Substance: Smoothened (Smo) (from UniProt P91682) Myc-SmoSA plus Hh
- binding against the reference: stronger
